Assay results published in article doi:10.1101/2025.05.27.656304, “Structure of the conjugation surface exclusion protein TraT” (bioRxiv, 2025).

Molecular target: the molecule itself
Assay: cryo-EM structure; purified TraT (12 mg/ml) in 100 mM Tris, 150 mM NaCl, 0.02% DDM, pH 8; global resolution 2.01 Å

B1: F plasmid TraT complex (Twin-Strep tagged recombinant TraT) (complex, Escherichia coli (F plasmid), UniProt P13979 22-244, looked up)
chain: CGAMSTAIKKRNLEVKTQMSETIWLEPASERTVFLQIKNTSDKDMSGLQGKIADAVKAKGYQVVTSPDKAYYWIQANVLKADKMDLRESQGWLNRGYEGAAVGAALGAGITGYNSNSAGATLGVGLAAGLVGMAADAMVEDVNYTMITDVQIAERTKATVTTDNVAALRQGTSGAKIQTSTETGNQHKYQTRVVSNANKVNLKFEEAKPVLEDQLAKSIANIL
modifications: lipid anchor on the N-terminal cysteine (density not resolved)
notes: TraT surface exclusion outer membrane lipoprotein of the E. coli F plasmid; the traT gene was cloned into a pET22b-derived vector; the protein in the structure begins at the lipidated N-terminal cysteine; Homodecamer by cryo-EM; also called TraTF; TraT-TS; copies: 10
- stoichiometry N: 10
